Results: patent US20220220508, “ENGINEERED CASX SYSTEMS” (Scribe Therapeutics Inc., published 2022)

T1: CasX 488
T1 chain: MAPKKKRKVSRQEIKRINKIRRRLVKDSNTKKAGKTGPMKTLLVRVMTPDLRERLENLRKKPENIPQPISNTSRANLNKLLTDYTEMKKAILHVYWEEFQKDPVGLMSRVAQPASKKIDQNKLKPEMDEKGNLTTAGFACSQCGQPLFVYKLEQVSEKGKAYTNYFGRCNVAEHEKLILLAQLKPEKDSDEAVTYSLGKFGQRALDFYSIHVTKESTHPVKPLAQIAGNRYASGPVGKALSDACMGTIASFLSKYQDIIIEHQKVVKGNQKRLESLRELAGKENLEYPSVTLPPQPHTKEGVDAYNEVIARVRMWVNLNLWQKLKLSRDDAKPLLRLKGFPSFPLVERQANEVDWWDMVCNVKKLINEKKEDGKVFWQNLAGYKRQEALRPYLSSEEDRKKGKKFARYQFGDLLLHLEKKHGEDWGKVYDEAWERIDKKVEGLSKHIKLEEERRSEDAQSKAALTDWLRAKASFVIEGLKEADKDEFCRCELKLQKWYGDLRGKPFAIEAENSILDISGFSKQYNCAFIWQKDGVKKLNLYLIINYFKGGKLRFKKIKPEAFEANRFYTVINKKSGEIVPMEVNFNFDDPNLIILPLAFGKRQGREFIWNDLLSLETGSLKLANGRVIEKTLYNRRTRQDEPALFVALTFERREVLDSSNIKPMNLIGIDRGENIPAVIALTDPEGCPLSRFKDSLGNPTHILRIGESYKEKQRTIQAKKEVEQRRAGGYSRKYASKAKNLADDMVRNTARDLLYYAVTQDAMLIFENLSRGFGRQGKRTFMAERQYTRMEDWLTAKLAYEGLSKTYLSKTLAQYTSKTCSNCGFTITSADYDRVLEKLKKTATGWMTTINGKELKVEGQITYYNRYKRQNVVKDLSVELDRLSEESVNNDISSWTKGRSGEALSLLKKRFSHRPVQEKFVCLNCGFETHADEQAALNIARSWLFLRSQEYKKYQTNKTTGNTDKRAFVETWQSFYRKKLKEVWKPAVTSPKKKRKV

T2: CasX 491
T2 chain: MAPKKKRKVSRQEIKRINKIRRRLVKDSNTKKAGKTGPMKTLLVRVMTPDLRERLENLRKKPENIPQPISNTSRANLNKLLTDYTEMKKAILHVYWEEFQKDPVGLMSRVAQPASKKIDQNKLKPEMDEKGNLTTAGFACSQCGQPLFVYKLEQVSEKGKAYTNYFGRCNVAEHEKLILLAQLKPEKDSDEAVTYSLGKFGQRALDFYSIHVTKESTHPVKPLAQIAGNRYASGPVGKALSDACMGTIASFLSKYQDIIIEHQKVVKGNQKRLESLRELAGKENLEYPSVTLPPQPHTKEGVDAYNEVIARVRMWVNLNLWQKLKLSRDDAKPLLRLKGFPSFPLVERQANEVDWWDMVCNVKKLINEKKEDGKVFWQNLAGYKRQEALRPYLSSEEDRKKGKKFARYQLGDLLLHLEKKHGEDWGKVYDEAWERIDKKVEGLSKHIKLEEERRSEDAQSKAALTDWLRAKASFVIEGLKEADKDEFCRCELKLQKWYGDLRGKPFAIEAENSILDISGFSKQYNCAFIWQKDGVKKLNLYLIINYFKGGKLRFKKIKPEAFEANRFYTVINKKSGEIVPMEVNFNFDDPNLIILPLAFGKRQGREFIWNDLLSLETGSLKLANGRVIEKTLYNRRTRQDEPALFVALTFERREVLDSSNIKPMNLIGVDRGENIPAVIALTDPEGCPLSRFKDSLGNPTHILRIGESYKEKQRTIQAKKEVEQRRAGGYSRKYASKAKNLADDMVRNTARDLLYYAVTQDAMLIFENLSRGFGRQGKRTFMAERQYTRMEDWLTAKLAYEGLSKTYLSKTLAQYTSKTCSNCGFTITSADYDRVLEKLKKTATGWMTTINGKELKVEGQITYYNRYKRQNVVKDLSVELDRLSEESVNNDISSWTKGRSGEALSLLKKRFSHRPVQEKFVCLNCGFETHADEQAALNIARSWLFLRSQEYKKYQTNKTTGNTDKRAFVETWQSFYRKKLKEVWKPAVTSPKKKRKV

T3: CasX 438 (in cells) (Planctomycetes)
T3 chain: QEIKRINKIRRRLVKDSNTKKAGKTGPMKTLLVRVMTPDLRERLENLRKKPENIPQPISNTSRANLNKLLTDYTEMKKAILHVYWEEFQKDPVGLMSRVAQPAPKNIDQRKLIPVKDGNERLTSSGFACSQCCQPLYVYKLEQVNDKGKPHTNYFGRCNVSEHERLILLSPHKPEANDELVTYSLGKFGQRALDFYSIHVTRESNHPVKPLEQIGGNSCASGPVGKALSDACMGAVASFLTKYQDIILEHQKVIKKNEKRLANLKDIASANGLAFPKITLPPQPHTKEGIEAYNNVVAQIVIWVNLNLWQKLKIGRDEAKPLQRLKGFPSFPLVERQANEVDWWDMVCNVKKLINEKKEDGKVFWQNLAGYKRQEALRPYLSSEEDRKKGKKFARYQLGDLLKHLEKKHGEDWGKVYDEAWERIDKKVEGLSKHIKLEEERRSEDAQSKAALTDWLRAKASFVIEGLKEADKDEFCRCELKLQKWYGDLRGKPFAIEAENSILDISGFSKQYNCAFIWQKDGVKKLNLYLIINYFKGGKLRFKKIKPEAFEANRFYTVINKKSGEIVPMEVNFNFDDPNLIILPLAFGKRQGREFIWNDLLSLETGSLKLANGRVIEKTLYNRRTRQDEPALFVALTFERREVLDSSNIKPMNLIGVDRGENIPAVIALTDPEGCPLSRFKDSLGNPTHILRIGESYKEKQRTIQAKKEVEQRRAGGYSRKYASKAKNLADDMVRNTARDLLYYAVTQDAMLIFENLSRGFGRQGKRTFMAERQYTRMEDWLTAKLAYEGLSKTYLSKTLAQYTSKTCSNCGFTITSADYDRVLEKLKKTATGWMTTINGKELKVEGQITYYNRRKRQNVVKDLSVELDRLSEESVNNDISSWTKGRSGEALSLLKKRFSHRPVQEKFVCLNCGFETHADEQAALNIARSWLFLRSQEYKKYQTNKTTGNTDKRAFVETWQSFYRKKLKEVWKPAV

B1: scaffold 174 + spacer 4.77 ; EGFP E7/4.77 target (ssRNA ; dsDNA)
RNA: ACUGGCGCUUUUAUCUGAUUACUUUGAGAGCCAUCACCAGCGACUAUGUCGUAGUGGGUAAAGCUCCCUCUUCGGAGGGAGCAUCAAAGUCAAGUCCGCCAUGCCCGAA
DNA 1: TCAAGTCCGCCATGCCCGAA
DNA 2: TTCGGGCATGGCGGACTTGA
B2: scaffold 174 + spacer 4.76 ; EGFP E6/4.76 target (ssRNA ; dsDNA)
RNA: ACUGGCGCUUUUAUCUGAUUACUUUGAGAGCCAUCACCAGCGACUAUGUCGUAGUGGGUAAAGCUCCCUCUUCGGAGGGAGCAUCAAAGUGUGGUCGGGGUAGCGGCUG
DNA 1: TGTGGTCGGGGTAGCGGCTG
DNA 2: CAGCCGCTACCCCGACCACA
B3: sgRNA 174.7.37 ; 7.37 TTC PAM target (ssRNA ; dsDNA)
RNA: ACUGGCGCUUUUAUCUGAUUACUUUGAGAGCCAUCACCAGCGACUAUGUCGUAGUGGGUAAAGCUCCCUCUUCGGAGGGAGCAUCAAAGGGCCGAGAUGUCUCGCUCCG
DNA 1: TGAAGCTGACAGCATTCGGGCCGAGATGTCTCGCTCCGTGGCCTTAGCTGTGCTCGCGCT
DNA 2: AGCGCGAGCACAGCTAAGGCCACGGAGCGAGACATCTCGGCCCGAATGCTGTCAGCTTCA

Columns and labels:
CasX 488 = biological target: T1, CasX 488; assay: cell_activity; lentiviral iGFP editing; TTC PAM
CasX 491 = biological target: T2, CasX 491; assay: cell_activity; lentiviral iGFP editing; TTC PAM
CasX 438 (in cells) = biological target: T3, CasX 438 (in cells); assay: cell_activity; lentiviral iGFP editing; TTC PAM
CasX 438 = CasX 438 (Planctomycetes); assay: cleavage_in_vitro; kcleave; TTC PAM; settings: tags: N-terminal SV40 NLS, C-terminal NLS, TEV site and twin Strep tag; label: fluorescent
CasX 438 (Planctomycetes), sequence (chain, as listed by the source): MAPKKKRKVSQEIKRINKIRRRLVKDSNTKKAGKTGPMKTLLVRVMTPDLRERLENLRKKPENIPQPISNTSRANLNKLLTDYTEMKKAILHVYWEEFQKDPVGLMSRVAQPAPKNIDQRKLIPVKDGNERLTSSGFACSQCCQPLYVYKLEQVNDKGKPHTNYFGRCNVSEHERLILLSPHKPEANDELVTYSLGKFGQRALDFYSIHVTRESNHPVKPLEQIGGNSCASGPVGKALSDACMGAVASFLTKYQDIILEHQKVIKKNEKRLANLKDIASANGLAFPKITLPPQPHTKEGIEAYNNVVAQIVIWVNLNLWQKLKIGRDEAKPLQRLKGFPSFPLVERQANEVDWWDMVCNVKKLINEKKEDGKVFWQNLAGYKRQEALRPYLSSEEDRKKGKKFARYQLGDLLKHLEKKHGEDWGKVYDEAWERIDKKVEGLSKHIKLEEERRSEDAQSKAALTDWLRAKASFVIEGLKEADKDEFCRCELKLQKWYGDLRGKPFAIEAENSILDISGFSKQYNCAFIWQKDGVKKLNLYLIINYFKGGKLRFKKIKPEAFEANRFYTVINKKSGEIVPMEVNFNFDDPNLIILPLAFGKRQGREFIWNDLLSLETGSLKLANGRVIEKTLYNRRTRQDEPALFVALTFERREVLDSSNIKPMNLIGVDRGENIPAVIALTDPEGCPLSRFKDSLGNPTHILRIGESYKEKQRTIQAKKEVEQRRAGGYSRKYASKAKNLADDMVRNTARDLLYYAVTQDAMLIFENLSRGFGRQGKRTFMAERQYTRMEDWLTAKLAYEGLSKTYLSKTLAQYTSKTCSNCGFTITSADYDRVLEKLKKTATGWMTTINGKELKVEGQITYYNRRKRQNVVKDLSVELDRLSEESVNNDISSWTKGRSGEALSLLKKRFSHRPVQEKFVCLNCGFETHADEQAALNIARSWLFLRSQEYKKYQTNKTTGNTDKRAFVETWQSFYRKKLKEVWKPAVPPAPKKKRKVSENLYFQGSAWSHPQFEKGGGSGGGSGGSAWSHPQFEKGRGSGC
Experimental: (§1) In vitro cleavage assays were performed essentially as described in Example 19, using CasX 2 (SED ID NO:2), CasX 119, and CasX 438 complexed with single guide 174 with spacer 7.37 targeted against B2M. Fluorescently labeled dsDNA targets that would be complementary with a 7.37 spacer and either a ITC, CTC, CTC, or ATC PAM were used (The DNA sequences used to generate each dsDNA substrate are shown in Table 29. The PAM sequences for each are bolded. TS—target strand. NTS—Non-target strand). Target DNA was incubated with a 20-fold excess of the indicated RNP and the amount of cleaved target was determined at the indicated. time points. The monophasic fit of the combined replicates is shown. During the assay, samples were taken at 0.25, 0.5, 1, 2, 5, 10, 30, and 60 minutes. Gels were imaged with an Amersham Typhoon and quantified using the IQTL 8,2 software. Apparent first-order rate constants for non-target strand cleavage (kcleave) were determined for each Casx:sgRNA complex on each target. Rate constants for targets with non-TTC PAM were compared to the TIC PAM target to determine whether the relative preference for each PAM was altered for a given CasX variant. The results are shown in FIG. 73 (the monophasic fit of the combined replicates is shown) and Table 30. […]

[1] = biological target: CasX 119 (L379R+A708K+[P793]) (Planctomycetes); assay: cleavage_in_vitro; kcleave; TTC PAM; settings: tags: N-terminal SV40 NLS, C-terminal NLS, TEV site and twin Strep tag; label: fluorescent
CasX 119 (L379R+A708K+[P793]) (Planctomycetes), sequence (chain, as listed by the source L379R A708K L379R A708K): as the sequence (chain, as listed by the source) above, with L408F, K413L, V667I, R865Y counted along it
Experimental: as §1

Binder	binding signal (CasX 488) [fold vs CasX 119]	binding signal (CasX 491) [fold vs CasX 119]	binding signal (CasX 438 (in cells)) [fold vs CasX 119]	activity (CasX 438) [min⁻¹]	activity [1] [min⁻¹]
B1	2.43	3.03	–	–	–
B2	1.41	1.55	1.22	–	–
B3	–	–	–	4.94	8.33
